Source: the supplement of paper PMC10126150
± gives the standard deviation of the averaged measurements.

Tested on: ATP
Assay: switch fluorescence ratio, 500 uM ATP over buffer (Cy3 cluster intensity, sum of 5 cycles each) (fold (ratio)); higher = stronger signal-on switching upon ATP binding; sequences stand for … in TCGTCGGCAGCGTCAGATGTGTATAAGAGACAGTTTTTTTTTTTTTTTTTTTTTTTTT…TC
Conditions: aptamer strand: ATP DNA aptamer (quencher-CACCTGGGGGAGTATTGCGGAGGAAGG + anchor), 100 nM annealed; ATP concentration: 500 uM
How it was run: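 Five buffer/ATP imaging cycles were run on Cy3-labelled switching-strand clusters on a modified Illumina MiSeq flow-cell, with NaOH stripping and re-annealing between cycles. In each cycle, clusters annealed to 100 nM quencher-labelled ATP aptamer were imaged in selection buffer, then after 15 min with 500 uM ATP at 22 °C. Per cluster, the fluorescence ratio is summed target-cycle over summed buffer-cycle Cy3 intensity, averaged per switch-domain sequence. Only clusters within 100-1000 RFU were kept.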
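Further: ATP exposure 15 min at 22 °C before imaging.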

TTTTGGAACG
switch fluorescence ratio: 0.99 ± 0.031

GCATGATGCG
switch fluorescence ratio: 0.994 ± 0.013

TTGCGTTTTT
switch fluorescence ratio: 1 ± 0.024

TGATTTTTTG
switch fluorescence ratio: 0.969 ± 0.03

CGATTTTTGT
switch fluorescence ratio: 0.982 ± 0.02

GATCGCTATC
switch fluorescence ratio: 2.91 ± 0.39

GAAATTTTCC
switch fluorescence ratio: 1.35 ± 0.077

TGGCATTTCC
switch fluorescence ratio: 1.18 ± 0.11

TCATGTACGT
switch fluorescence ratio: 1.06 ± 0.028

GTGGGGGTTG
switch fluorescence ratio: 0.976 ± 0.043

TATGACGTTA
switch fluorescence ratio: 1 ± 0.048

GATGCAGTTC
switch fluorescence ratio: 1.66 ± 0.053

AGGGGTTTGT
switch fluorescence ratio: 1.02 ± 0.017

CAACTGGGGC
switch fluorescence ratio: 1.06 ± 0.022

GGCCCGCGTT
switch fluorescence ratio: 1.11 ± 0.065

GGGTTAGCTG
switch fluorescence ratio: 1.01 ± 0.081

AGTTCGGCGT
switch fluorescence ratio: 0.999 ± 0.029

GGGTCGCCAT
switch fluorescence ratio: 1 ± 0.028

CGTTAGGGTA
switch fluorescence ratio: 0.9911 ± 0.003

GGTGTGTTGC
switch fluorescence ratio: 0.998 ± 0.06

GCCCACGGGA
switch fluorescence ratio: 1.07 ± 0.039

TTCCCAGATG
switch fluorescence ratio: 1.81 ± 0.41

TAACGTTTAT
switch fluorescence ratio: 1.01 ± 0.032

ATTTTGAAGA
switch fluorescence ratio: 1.01 ± 0.032

AGTCGTTCAG
switch fluorescence ratio: 0.949 ± 0.023

ATGGGACAGC
switch fluorescence ratio: 0.975 ± 0.033

GAGGATTGTG
switch fluorescence ratio: 0.976 ± 0.012

ATATCGTATT
switch fluorescence ratio: 1 ± 0.013

AAGTAAGGGC
switch fluorescence ratio: 1.02 ± 0.031

CAATTGTCGT
switch fluorescence ratio: 0.991 ± 0.033

GAGGTTGGAT
switch fluorescence ratio: 0.982 ± 0.016

TAGAGAGCT
switch fluorescence ratio: 1.02 ± 0.015

GCGTATGGAC
switch fluorescence ratio: 1.01 ± 0.02

TTCAAGGAGT
switch fluorescence ratio: 1.028 ± 0.0017

GAGGGTTCGG
switch fluorescence ratio: 0.972 ± 0.031

CGGGTTGTGG
switch fluorescence ratio: 1.02 ± 0.062

AGAGTTAATG
switch fluorescence ratio: 0.968 ± 0.011

GCAATTGCCT
switch fluorescence ratio: 0.989 ± 0.029

GGGTCATGTC
switch fluorescence ratio: 0.934 ± 0.052

TACAGGGAAC
switch fluorescence ratio: 0.974 ± 0.014

GCTTCCAGGG
switch fluorescence ratio: 1.14 ± 0.094

GCTTCTTGGC
switch fluorescence ratio: 0.967 ± 0.034

ATTTTGGAGC
switch fluorescence ratio: 0.999 ± 0.058

CACTCATTTT
switch fluorescence ratio: 0.98 ± 0.033

CCTGGGCCGC
switch fluorescence ratio: 1.65 ± 0.081

GAGGCAAGTG
switch fluorescence ratio: 1.12 ± 0.055

ATGGGGGCCT
switch fluorescence ratio: 1.02 ± 0.048

GCACGGTACG
switch fluorescence ratio: 1 ± 0.031

ATACGGAAAA
switch fluorescence ratio: 1.046 ± 0.004

GAGGTATGGG
switch fluorescence ratio: 0.9761 ± 0.0077

GAGGTACTTT
switch fluorescence ratio: 0.993 ± 0.022

CAGAAAATGG
switch fluorescence ratio: 1 ± 0.012

CCTGGGCCGG
switch fluorescence ratio: 1.06 ± 0.058

CCCATTTGTA
switch fluorescence ratio: 1 ± 0.026

AGTATGGGGA
switch fluorescence ratio: 0.989 ± 0.016

TAGATAAATT
switch fluorescence ratio: 0.9965 ± 0.008

AGTGTCGTTT
switch fluorescence ratio: 0.991 ± 0.02

GTGTTATAAT
switch fluorescence ratio: 0.986 ± 0.021

GATTTGCATC
switch fluorescence ratio: 1.03 ± 0.025

TACATAGTTC
switch fluorescence ratio: 1.032 ± 0.0018

CTCCTACAGC
switch fluorescence ratio: 1.32 ± 0.2

AGGGCTACAG
switch fluorescence ratio: 1.013 ± 0.0054

GCCTTACATT
switch fluorescence ratio: 1.01 ± 0.039

TGGCAAAGTT
switch fluorescence ratio: 0.985 ± 0.013

ACGGAAGGGT
switch fluorescence ratio: 1.04 ± 0.043

TAATCTTTTG
switch fluorescence ratio: 0.986 ± 0.026

ACAGGTTGGT
switch fluorescence ratio: 1.03 ± 0.018

GGGTCTTAAT
switch fluorescence ratio: 0.981 ± 0.031

GAAGTAGGAG
switch fluorescence ratio: 1.01 ± 0.032

GAGGCGGGGG
switch fluorescence ratio: 0.988 ± 0.012

TCCAAAATTT
switch fluorescence ratio: 0.976 ± 0.013

GTTAATTTTT
switch fluorescence ratio: 1.01 ± 0.043

GCCGGGAGTC
switch fluorescence ratio: 1 ± 0.02

CGGGTAGGGG
switch fluorescence ratio: 0.996 ± 0.069

ATGGTTCACT
switch fluorescence ratio: 1.023 ± 0.0032

GTTAGTTTGC
switch fluorescence ratio: 1.01 ± 0.021

CGTTGCTTGG
switch fluorescence ratio: 1 ± 0.046

CGGCAGGTTT
switch fluorescence ratio: 0.992 ± 0.016

AATCCGAGGA
switch fluorescence ratio: 1.05 ± 0.054

GTTGAATGAC
switch fluorescence ratio: 1.04 ± 0.0083

TCGGGTTTTC
switch fluorescence ratio: 1 ± 0.039

TTGTTGTTTG
switch fluorescence ratio: 1.03 ± 0.025

ATTTAACGGT
switch fluorescence ratio: 1.03 ± 0.022

TGCTGCAGTT
switch fluorescence ratio: 0.982 ± 0.055

GGTGTTATGT
switch fluorescence ratio: 1.01 ± 0.016

CATGGGGTTG
switch fluorescence ratio: 0.978 ± 0.02

CATGGCCTGA
switch fluorescence ratio: 0.977 ± 0.018

CGGAAAGACG
switch fluorescence ratio: 1.05 ± 0.014

CGTGTTGTAG
switch fluorescence ratio: 1.02 ± 0.017

ACAGCTTTGA
switch fluorescence ratio: 0.985 ± 0.026

CGGGGGGCAG
switch fluorescence ratio: 1.01 ± 0.024

TTAAAAGTTT
switch fluorescence ratio: 0.994 ± 0.043

TTCCCTTTTT
switch fluorescence ratio: 1.03 ± 0.019

GGGGAACTTC
switch fluorescence ratio: 1.05 ± 0.045

TTGAACGTGT
switch fluorescence ratio: 0.994 ± 0.042

TAGTTTAGTT
switch fluorescence ratio: 1 ± 0.015

TCTATGAGGG
switch fluorescence ratio: 1.01 ± 0.023

AAATGGGGAT
switch fluorescence ratio: 1.01 ± 0.032

TAGCGGGGTT
switch fluorescence ratio: 0.9757 ± 0.0054

ATCATGGCAC
switch fluorescence ratio: 1.04 ± 0.025

GAAAAGGGAG
switch fluorescence ratio: 0.974 ± 0.032

CGTCAATTAT
switch fluorescence ratio: 1.14 ± 0.054

CCGGTTTTTA
switch fluorescence ratio: 0.996 ± 0.01

TGATGGGGGT
switch fluorescence ratio: 1.04 ± 0.042

AGCAGTTGGG
switch fluorescence ratio: 1.03 ± 0.065

AGTAGCAGCT
switch fluorescence ratio: 1.03 ± 0.048

GTTTAGCTGT
switch fluorescence ratio: 0.9948 ± 0.0021

TAGGTGATTT
switch fluorescence ratio: 1.03 ± 0.023

GTTTTCGTGG
switch fluorescence ratio: 0.995 ± 0.021

GCGGGAATGG
switch fluorescence ratio: 1.02 ± 0.0037

TAGGGACTAT
switch fluorescence ratio: 1.02 ± 0.018

TGCCTTTCGG
switch fluorescence ratio: 0.9909 ± 0.0062

TAAAGGGAAT
switch fluorescence ratio: 1.02 ± 0.056

AGCGAACGGG
switch fluorescence ratio: 1.05 ± 0.025

GCTAACCGTA
switch fluorescence ratio: 1.04 ± 0.023

TGGGGGG
switch fluorescence ratio: 1.016 ± 0.0078

TCACGAGTTT
switch fluorescence ratio: 1.014 ± 0.0038

TAGTCGCGTC
switch fluorescence ratio: 1.004 ± 0.0066

AAGTGCATGC
switch fluorescence ratio: 1.01 ± 0.11

CGGGAGCGTT
switch fluorescence ratio: 1.12 ± 0.18

GCTCTTTGCT
switch fluorescence ratio: 0.988 ± 0.044

TGGGCGAAGG
switch fluorescence ratio: 0.9702 ± 0.0071

TTAAAATCTG
switch fluorescence ratio: 1.02 ± 0.027

AAAACTCCGA
switch fluorescence ratio: 1.07 ± 0.097

TGTTGGACGT
switch fluorescence ratio: 1.036 ± 0.0024

ATGGGTAGTG
switch fluorescence ratio: 0.984 ± 0.02

AGTTGGGGTT
switch fluorescence ratio: 1.035 ± 0.0033

TAAACTTG
switch fluorescence ratio: 1.04 ± 0.086

GGAGTGATTT
switch fluorescence ratio: 1 ± 0.017

GGGGCGGGGG
switch fluorescence ratio: 1.02 ± 0.043

TAGTACTCGT
switch fluorescence ratio: 1.01 ± 0.011

GGTTTAATTT
switch fluorescence ratio: 0.993 ± 0.026

CTTAGTGCTT
switch fluorescence ratio: 0.973 ± 0.039

CGTGATATCT
switch fluorescence ratio: 1.05 ± 0.018

TTATTGACGA
switch fluorescence ratio: 0.992 ± 0.021

CCGGATTATG
switch fluorescence ratio: 1.05 ± 0.016

GAATGAAAAT
switch fluorescence ratio: 0.997 ± 0.022

CCGCGGATGG
switch fluorescence ratio: 1.25 ± 0.15

TTTAATTGTA
switch fluorescence ratio: 1.01 ± 0.044

CCTTTTGCCA
switch fluorescence ratio: 1.1 ± 0.028

CTCTCGGCCG
switch fluorescence ratio: 1.03 ± 0.12

AACATTGTTT
switch fluorescence ratio: 1.01 ± 0.016

GCGACATCGT
switch fluorescence ratio: 1.027 ± 0.0091

TTGTTGCCGT
switch fluorescence ratio: 0.984 ± 0.065

ATACGAACGT
switch fluorescence ratio: 0.9928 ± 0.0019

AGATCTTGTA
switch fluorescence ratio: 0.991 ± 0.065

AATAAAATCG
switch fluorescence ratio: 1.04 ± 0.01

TGTTGAGTTT
switch fluorescence ratio: 0.994 ± 0.027

TCTAGGGTGC
switch fluorescence ratio: 1.13 ± 0.042

GTCGGACGGA
switch fluorescence ratio: 0.971 ± 0.042

GTATTAGGGG
switch fluorescence ratio: 1.01 ± 0.028

TAAAGGTAGT
switch fluorescence ratio: 1 ± 0.032

GCTTAAGAGG
switch fluorescence ratio: 1.03 ± 0.017

TGATGGGTTT
switch fluorescence ratio: 0.971 ± 0.043

GTTAAAAAAA
switch fluorescence ratio: 0.958 ± 0.021

TTAGGGACGT
switch fluorescence ratio: 1.01 ± 0.026

AAGGGCCCGT
switch fluorescence ratio: 1.02 ± 0.022

AAGGCAGGTC
switch fluorescence ratio: 1.02 ± 0.029

TTCGTTGTAA
switch fluorescence ratio: 0.98683 ± 0.00096

AAAAAAGTTC
switch fluorescence ratio: 0.984 ± 0.022

TGATGGGACT
switch fluorescence ratio: 1.01 ± 0.029

GTTGTTTCGT
switch fluorescence ratio: 1 ± 0.017

ATCGATTATC
switch fluorescence ratio: 0.988 ± 0.021

ACTCGACCTT
switch fluorescence ratio: 1.21 ± 0.15

GGGGTGCCTT
switch fluorescence ratio: 1.037 ± 0.0021

AAAAAAGTGC
switch fluorescence ratio: 1.04 ± 0.051

GGTACTAGGC
switch fluorescence ratio: 1.04 ± 0.08

AGTTTTTATA
switch fluorescence ratio: 1.002 ± 0.0012

AGCACGGCAG
switch fluorescence ratio: 0.991 ± 0.021

CCAGCCGTCG
switch fluorescence ratio: 1.07 ± 0.04

CGTGAAAGTA
switch fluorescence ratio: 0.996 ± 0.049

GATGCATGC
switch fluorescence ratio: 1.22 ± 0.065

CGGTTGACGG
switch fluorescence ratio: 0.9494 ± 0.0017

AGGGAGGGAT
switch fluorescence ratio: 1.01 ± 0.027

GAGGATTTAG
switch fluorescence ratio: 0.964 ± 0.013

TGGGGGGTGG
switch fluorescence ratio: 1 ± 0.041

ATAAATGGGC
switch fluorescence ratio: 0.972 ± 0.014

CGGGGCCGTT
switch fluorescence ratio: 1 ± 0.019

CCTTTTAGCG
switch fluorescence ratio: 1.16 ± 0.055

CTTTTTGTTG
switch fluorescence ratio: 1.03 ± 0.031

CGGGGTGGGA
switch fluorescence ratio: 1.01 ± 0.029

ATCACACATT
switch fluorescence ratio: 1.02 ± 0.032

CCTGTGTAAT
switch fluorescence ratio: 3.18 ± 0.053

TGAAGTAAGC
switch fluorescence ratio: 1.09 ± 0.12

AAGATGGTGG
switch fluorescence ratio: 1.004 ± 0.0057

GATTGACGTG
switch fluorescence ratio: 0.957 ± 0.08

GTCGGTCTGG
switch fluorescence ratio: 1 ± 0.098

TAAATTTTTC
switch fluorescence ratio: 1.042 ± 0.008

CAGATTGTGT
switch fluorescence ratio: 1 ± 0.039

ATTTGTGATG
switch fluorescence ratio: 0.994 ± 0.047

TGTTTGGGTG
switch fluorescence ratio: 1.08 ± 0.11

AAATCGAAAC
switch fluorescence ratio: 1.03 ± 0.038

TCATTGATTT
switch fluorescence ratio: 0.978 ± 0.022

CTGAGAGTAT
switch fluorescence ratio: 1 ± 0.025

ATTTGCGGTT
switch fluorescence ratio: 0.9949 ± 0.0022

GTTGTTCTGA
switch fluorescence ratio: 0.9718 ± 0.0033

GGGAACGTGT
switch fluorescence ratio: 0.997 ± 0.019

TCATTTCAGG
switch fluorescence ratio: 1.01 ± 0.012

TATCGTAGGC
switch fluorescence ratio: 0.9996 ± 0.00057

GGTCCAAGAT
switch fluorescence ratio: 0.9998 ± 0.0066
